Test results: US20240025984A1 (FLUX THERAPEUTICS, published 2024)

T1: SYNGAP1-nanoluc-alfa-tag-fusion
T1 chain: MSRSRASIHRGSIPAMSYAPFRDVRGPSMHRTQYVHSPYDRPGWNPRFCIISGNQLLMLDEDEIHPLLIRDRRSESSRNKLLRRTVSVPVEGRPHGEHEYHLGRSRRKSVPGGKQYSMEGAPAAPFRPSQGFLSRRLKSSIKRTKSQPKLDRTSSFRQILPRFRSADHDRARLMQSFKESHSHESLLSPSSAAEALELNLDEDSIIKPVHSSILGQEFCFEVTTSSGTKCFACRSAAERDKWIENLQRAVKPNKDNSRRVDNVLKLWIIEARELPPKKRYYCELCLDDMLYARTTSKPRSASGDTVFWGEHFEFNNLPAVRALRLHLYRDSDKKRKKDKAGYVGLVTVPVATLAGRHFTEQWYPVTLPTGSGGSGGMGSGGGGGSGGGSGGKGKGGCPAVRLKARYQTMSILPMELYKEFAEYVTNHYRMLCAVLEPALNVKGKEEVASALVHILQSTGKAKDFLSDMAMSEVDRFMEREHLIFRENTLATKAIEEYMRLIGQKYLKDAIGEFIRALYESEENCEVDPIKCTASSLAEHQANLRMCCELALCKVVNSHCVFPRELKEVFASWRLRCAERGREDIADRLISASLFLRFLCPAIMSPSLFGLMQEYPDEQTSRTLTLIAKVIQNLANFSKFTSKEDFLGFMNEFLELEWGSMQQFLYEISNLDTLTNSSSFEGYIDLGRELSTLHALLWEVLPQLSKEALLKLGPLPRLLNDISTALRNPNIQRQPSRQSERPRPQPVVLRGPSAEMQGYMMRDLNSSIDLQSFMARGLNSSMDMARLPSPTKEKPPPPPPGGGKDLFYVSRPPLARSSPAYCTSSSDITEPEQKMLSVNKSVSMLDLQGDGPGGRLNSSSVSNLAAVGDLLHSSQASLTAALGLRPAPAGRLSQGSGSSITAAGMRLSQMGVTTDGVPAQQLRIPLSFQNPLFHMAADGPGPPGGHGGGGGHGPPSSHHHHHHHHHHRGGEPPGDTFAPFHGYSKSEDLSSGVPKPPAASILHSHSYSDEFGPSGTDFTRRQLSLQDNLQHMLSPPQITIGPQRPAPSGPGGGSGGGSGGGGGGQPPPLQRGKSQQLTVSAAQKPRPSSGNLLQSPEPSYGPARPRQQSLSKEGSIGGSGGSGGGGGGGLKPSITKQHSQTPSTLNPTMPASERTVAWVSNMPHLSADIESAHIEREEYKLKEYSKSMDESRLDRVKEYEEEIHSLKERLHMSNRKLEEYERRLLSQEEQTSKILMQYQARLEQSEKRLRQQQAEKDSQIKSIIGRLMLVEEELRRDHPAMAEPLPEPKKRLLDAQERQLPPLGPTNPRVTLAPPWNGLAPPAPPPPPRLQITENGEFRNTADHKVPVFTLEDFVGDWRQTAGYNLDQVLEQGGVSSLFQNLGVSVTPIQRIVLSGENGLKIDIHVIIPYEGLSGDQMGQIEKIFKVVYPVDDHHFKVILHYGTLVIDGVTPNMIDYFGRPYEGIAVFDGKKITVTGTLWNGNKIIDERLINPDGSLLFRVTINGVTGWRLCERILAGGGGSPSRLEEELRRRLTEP

T2: His-SynGAP-EC[1186-1277] (Homo sapiens (Human), UniProt Q96PV0 956-1305)
T2 construct: Expressed in E. coli, purified on nickel resin, 15.75 kDa; also called SYNGAP1 fragment with N-terminal 6His tag
T2 sequence: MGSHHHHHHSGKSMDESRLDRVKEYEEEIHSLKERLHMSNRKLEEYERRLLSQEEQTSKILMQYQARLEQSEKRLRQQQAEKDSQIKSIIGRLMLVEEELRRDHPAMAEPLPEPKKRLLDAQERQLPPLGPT

B1: FireflyLuciferase-P2A-anti-syngap1_FLX00155-Cezanne (other)
chain: MEDAKNIKKGPAPFYPLEDGTAGEQLHKAMKRYALVPGTIAFTDAHIEVDITYAEYFEMSVRLAEAMKRYGLNTNHRIVVCSENSLQFFMPVLGALFIGVAVAPANDIYNERELLNSMGISQPTVVFVSKKGLQKILNVQKKLPIIQKIIIMDSKTDYQGFQSMYTFVTSHLPPGFNEYDFVPESFDRDKTIALIMNSSGSTGLPKGVALPHRTACVRFSHARDPIFGNQIIPDTAILSVVPFHHGFGMFTTLGYLICGFRVVLMYRFEEELFLRSLQDYKIQSALLVPTLFSFFAKSTLIDKYDLSNLHEIASGGAPLSKEVGEAVAKRFHLPGIRQGYGLTETTSAILITPEGDDKPGAVGKVVPFFEAKVVDLDTGKTLGVNQRGELCVRGPMIMSGYVNNPEATNALIDKDGWLHSGDIAYWDEDEHFFIVDRLKSLIKYKGYQVAPAELESILLQHPNIFDAGVAGLPDDDAGELPAAVVVLEHGKTMTEKEIVDYVASQVTTAKKLRGGVVFVDEVPKGLTGKLDARKIREILIKAKKGGKIAVTRLKGSGATNFSLLKQAGDVEENPGPRSGTGSSGQVQLVESGGGLVQPGGSLRLSCAASGFAFGSYDMSWVRQAPGQGPEWVSAITPGGGGTFYAYYSDSVKGRFAISRDNAKNTLTLQMNSLKPDDTAMYYCAKNFYGNGGRGHGTQVTVSSGGGGSGGGGSGGGGSGGGGSQVQLVESGGGLVQPGGSLRLSCAASGFAFGSYDMSWVRQAPGQGPEWVSAITPGGGGTFYAYYSDSVKGRFAISRDNAKNTLTLQMNSLKPDDTAMYYCAKNFYGNGGRGHGTQVTVSSGAPGSGPPSFSEGSGGSRTPEKGFSDREPTRPPRPILQRQDDIVQEKRLSRGISHASSSIVSLARSHVSSNGGGGGSNEHPLEMPICAFQLPDLTVYNEDFRSFIERDLIEQSMLVALEQAGRLNWWVSVDPTSQRLLPLATTGDGNCLLHAASLGMWGFHDRDLMLRKALYALMEKGVEKEALKRRWRWQQTQQNKESGLVYTEDEWQKEWNELIKLASSEPRMHLGTNGANCGGVESSEEPVYESLEEFHVFVLAHVLRRPIVVVADTMLRDSGGEAFAPIPFGGIYLPLEVPASQCHRSPLVLAYDQAHFSALVSMEQKENTKEQAVIPLTDSEYKLLPLHFAVDPGKGWEWGKDDSDNVRLASVILSLEVKLHLLHSYMNVKWIPLSSDAQAPLAQ
B2: FLX00153 (VHH)
VHH: QLQLVESGGGLVQPGESLRLSCAASGFTFSNYRMYWVRMAPGKGLEWVSDIDRSGTYTYYADSVKGRFAISRDNAKNTVYLQMNSLKPEDTAVYYCAADRRLIVDLTPEVYDHWGQGTQVTVSS
notes: Camelid VHH from a phage library; also called anti-SynGAP VHH FLX00153; VHH
B3: FLX00157 (VHH)
VHH: QVQLVESGGGLVQAGASLRLSCAASERTFGHYAMGWFRQAPGKEREFVATISWKGGTTGYAHSVKGRFTISRDSAKNMVYLQMNSLKPEDTAVYYCAARNTMSGSMSSSAYPYWGQGTQVTVSS
notes: Camelid VHH from a phage library; also called anti-SynGAP VHH FLX00157; VHH
B4: FLX00155 (VHH)
VHH: QVQLVESGGGLVQPGGSLRLSCAASGFAFGSYDMSWVRQAPGQGPEWVSAITPGGGGTFYAYYSDSVKGRFAISRDNAKNTLTLQMNSLKPDDTAMYYCAKNFYGNGGRGHGTQVTVSS
notes: Camelid VHH from a phage library; also called anti-SynGAP VHH FLX00155; VHH
B5: FLX00156 (VHH)
VHH: QVQLVESGGGLVQPGGSLRLACAASGFTFGTHAMHWVRWAPGKGFEWVSTISSGGGGTRYADSVKGRFTISRDNAKNTVYLQMDNLKPEDTAVYYCNSPSNIANDNWGQGTQVTVSS
notes: Camelid VHH from a phage library; also called anti-SynGAP VHH FLX00156; VHH
B6: FLX00154 (VHH)
VHH: QVQLVESGGGLVQPGGSLRLSCAASGFIFSSYQMAWVRQAPGKGLEWVADINTGGWNTYYADSVKGRFTISRDNAKNTLYLEMNSLKPEDTAVYYCAADRWMVAKIVGGDLDFDSWGQGTQVTVSS
notes: Camelid VHH from a phage library; also called anti-SynGAP VHH FLX00154; VHH
B7: FireflyLuciferase-P2A-anti-syngap1_FLX00154-Cezanne (other)
chain: MEDAKNIKKGPAPFYPLEDGTAGEQLHKAMKRYALVPGTIAFTDAHIEVDITYAEYFEMSVRLAEAMKRYGLNTNHRIVVCSENSLQFFMPVLGALFIGVAVAPANDIYNERELLNSMGISQPTVVFVSKKGLQKILNVQKKLPIIQKIIIMDSKTDYQGFQSMYTFVTSHLPPGFNEYDFVPESFDRDKTIALIMNSSGSTGLPKGVALPHRTACVRFSHARDPIFGNQIIPDTAILSVVPFHHGFGMFTTLGYLICGFRVVLMYRFEEELFLRSLQDYKIQSALLVPTLFSFFAKSTLIDKYDLSNLHEIASGGAPLSKEVGEAVAKRFHLPGIRQGYGLTETTSAILITPEGDDKPGAVGKVVPFFEAKVVDLDTGKTLGVNQRGELCVRGPMIMSGYVNNPEATNALIDKDGWLHSGDIAYWDEDEHFFIVDRLKSLIKYKGYQVAPAELESILLQHPNIFDAGVAGLPDDDAGELPAAVVVLEHGKTMTEKEIVDYVASQVTTAKKLRGGVVFVDEVPKGLTGKLDARKIREILIKAKKGGKIAVTRLKGSGATNFSLLKQAGDVEENPGPRSGTGSSGQVQLVESGGGLVQPGGSLRLSCAASGFIFSSYQMAWVRQAPGKGLEWVADINTGGWNTYYADSVKGRFTISRDNAKNTLYLEMNSLKPEDTAVYYCAADRWMVAKIVGGDLDFDSWGQGTQVTVSSGGGGSGGGGSGGGGSGGGGSQVQLVESGGGLVQPGGSLRLSCAASGFIFSSYQMAWVRQAPGKGLEWVADINTGGWNTYYADSVKGRFTISRDNAKNTLYLEMNSLKPEDTAVYYCAADRWMVAKIVGGDLDFDSWGQGTQVTVSSGAPGSGPPSFSEGSGGSRTPEKGFSDREPTRPPRPILQRQDDIVQEKRLSRGISHASSSIVSLARSHVSSNGGGGGSNEHPLEMPICAFQLPDLTVYNEDFRSFIERDLIEQSMLVALEQAGRLNWWVSVDPTSQRLLPLATTGDGNCLLHAASLGMWGFHDRDLMLRKALYALMEKGVEKEALKRRWRWQQTQQNKESGLVYTEDEWQKEWNELIKLASSEPRMHLGTNGANCGGVESSEEPVYESLEEFHVFVLAHVLRRPIVVVADTMLRDSGGEAFAPIPFGGIYLPLEVPASQCHRSPLVLAYDQAHFSALVSMEQKENTKEQAVIPLTDSEYKLLPLHFAVDPGKGWEWGKDDSDNVRLASVILSLEVKLHLLHSYMNVKWIPLSSDAQAPLAQ
B8: FLX00152 (VHH)
VHH: QVQLVESGGGLVQPGGSLRLSCAASGFSFSNFPMMWVRQAPGKGREWVADINQDGRNTYYADSVKGRFTISRDNAKTTVYLQMNNLNPEDTAVYYCQAIRTTTHFDSWGQGTQVTVSS
notes: Camelid VHH from a phage library; also called anti-SynGAP VHH FLX00152; VHH

Legend:
[1] = target: T1, SYNGAP1-nanoluc-alfa-tag-fusion; assay: cell-based or functional assay
His-SynGAP-EC[1186-1277] = target: T2, His-SynGAP-EC[1186-1277]; assay: phage display panning, then polyclonal and monoclonal phage ELISA on plate-coated antigen (4 ug/ml)
Description: The concentration of the eluted phages was determined. First, the eluted phages were added to E. Coli TG1. TG1 was poured onto a plate and cultured upside down. The PFU was calculated based on the number of plaques (i.e. dead TG1) on the plate. The eluted phages were added to TG1 followed infection by helper phage and cultured. Phages were precipitated with PEG/NaCl and subsequently resuspended. The phages were screened using a polyclonal ELISA and a monoclonal ELISA. […] ([…]) or control buffer. The coated plate was washed, blocked, washed, and incubated with the amplified eluted phages. Subsequently the plate was washed and incubated with anti-phage-HRP antibody, washed, and incubated with TMB followed by HCL. The result readings were taken at 450 nm. The monoclonal phase ELISA was carried out according to the following. Single TG1 clones randomly selected from plates (described above) were cultured with helper phage. A total of 192 clones from round 3+96 clones from round 4+96 clones from round 5 were selected. The clones were centrifuged and the supernatant (i.e. the phages) were collected. […] The plate was washed, blocked, washed, incubated with the selected phages, washed, incubated with anti-phage-HRP antibody, washed, and incubated with TMB followed by HCL. The results were read of 450 nm.

Binder	increase in SYNGAP1 expression over the control [1] [fold]	binding result (His-SynGAP-EC[1186-1277])
B1	≥ 2	–
B2	–	binds
B3	–	binds
B4	–	binds
B5	–	binds
B6	–	binds
B7	≥ 2	–
B8	–	binds
